Test results taken from US20240401071A1.

Target: Rubisco activase (Arabidopsis thaliana) (UniProt P10896)
Assay: GFP-bead immunoprecipitation of PRL-1-eGFP from Arabidopsis leaves, mass spectrometry (IPMS); interaction direct or indirect

UniProt P10896, sequence (P10896 59-474 limits assumed): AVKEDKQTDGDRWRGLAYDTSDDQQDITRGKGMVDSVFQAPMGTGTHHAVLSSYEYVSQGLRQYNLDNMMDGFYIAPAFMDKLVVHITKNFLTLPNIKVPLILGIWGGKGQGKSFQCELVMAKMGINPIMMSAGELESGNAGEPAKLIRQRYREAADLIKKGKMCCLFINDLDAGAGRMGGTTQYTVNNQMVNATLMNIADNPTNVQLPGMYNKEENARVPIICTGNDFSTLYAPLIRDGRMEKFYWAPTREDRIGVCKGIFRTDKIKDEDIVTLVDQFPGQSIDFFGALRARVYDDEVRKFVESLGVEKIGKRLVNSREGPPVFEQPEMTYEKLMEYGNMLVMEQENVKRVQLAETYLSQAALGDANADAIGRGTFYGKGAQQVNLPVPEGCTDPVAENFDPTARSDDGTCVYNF

Q: “PRL-1-eGFP (C-terminal GFP fusion with PRL-1, ribulose bisphosphate carboxylase/oxygenase large subunit-related, Potri.012G062600)” was tested. Which fold abundance in the dark versus light (co-precipitated protein) did it give?
A: 4 fold
